From PMC2555995 (The Journal of Biological Chemistry, 2008)
Changes are numbered by the printed parent chain. In names and notes the source's numbering stands. Blank lines part the entries; values can stand above or below the binder they belong to.

Assays:
His6-Nab2 = molecular target: T1, His6-Nab2 (S. cerevisiae, UniProt P32505 1-525); experiment: pull-down
T1 sequence (looked up): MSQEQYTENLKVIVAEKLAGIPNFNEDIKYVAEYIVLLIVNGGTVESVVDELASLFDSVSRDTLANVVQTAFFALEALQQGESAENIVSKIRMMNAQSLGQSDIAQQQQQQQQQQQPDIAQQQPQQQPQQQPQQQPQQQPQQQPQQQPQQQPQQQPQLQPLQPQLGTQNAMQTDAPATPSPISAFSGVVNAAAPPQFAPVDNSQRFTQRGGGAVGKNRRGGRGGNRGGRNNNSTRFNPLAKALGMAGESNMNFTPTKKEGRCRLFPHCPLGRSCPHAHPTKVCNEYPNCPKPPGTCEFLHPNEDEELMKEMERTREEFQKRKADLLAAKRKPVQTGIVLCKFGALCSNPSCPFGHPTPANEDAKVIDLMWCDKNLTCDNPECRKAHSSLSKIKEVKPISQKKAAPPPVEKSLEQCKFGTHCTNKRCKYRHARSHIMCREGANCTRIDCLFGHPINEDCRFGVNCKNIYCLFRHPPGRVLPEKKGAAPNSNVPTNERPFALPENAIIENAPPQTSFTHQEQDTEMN

[1] = molecular target: His6-S-Tag-Mlp1-NBD (residues 1586–1768) (S. cerevisiae, UniProt Q02455 1586-1768); experiment: ELISA

binding result (His6-Nab2): binds
B1: GST-CT-Mlp1 (residues 1490–1875) (domain or fragment, S. cerevisiae, UniProt Q02455 1490-1875, looked up)
chain: AQERLNQPSNINMEEIKKKWESEHEQEVSQKIREAEEALKKRIRLPTEEKINKIIERKKEELEKEFEEKVEERIKSMEQSGEIDVVLRKQLEAKVQEKQKELENEYNKKLQEELKDVPHSSHISDDERDKLRAEIESRLREEFNNELQAIKKKSFDEGKQQAMMKTTLLERKLAKMESQLSETKQSAESPPKSVNNVQNPLLGLPRKIEENSNSPFNPLLSGEKLLKLNSKSSSGGFNPFTSPSPNKHLQNDNDKRESLANKTDPPTHLEPSFNIPASRGLISSSSTLSTDTNDEELTSNNPAQKDSSNRNVQSEEDTEKKKEGEPVKRGEAIEEQTKSNKRPIDEVGELKNDEDDTTENINESKKIKTEDEEEKETDKVNDENSI

Kd [1]: 2310 nM
B4: GST-Nab2-N-F72D (residues 1–97) (domain or fragment, S. cerevisiae, UniProt P32505 1-97, looked up)
chain: MSQEQYTENLKVIVAEKLAGIPNFNEDIKYVAEYIVLLIVNGGTVESVVDELASLFDSVSRDTLANVVQTADFALEALQQGESAENIVSKIRMMNAQ

The next lines start with the binder.

B2: GST-Nab2-N-WT (residues 1–97) (domain or fragment, S. cerevisiae, UniProt P32505 1-97, looked up)
chain: B4 chain with D72F
Kd [1]: 1260 nM

B3: GST-Nab2-N-F73W (residues 1–97) (domain or fragment, S. cerevisiae, UniProt P32505 1-97, looked up)
chain: B4 chain with D72F, F73W
Kd [1]: 830 nM
